Results: the supplement of paper PMC10201428
± gives the standard deviation of the averaged measurements.

Experiments:
[1] = system: VchCAST RNA-guided transposition machinery (E. coli BL21(DE3) host, lacZ target); assay: relative integration efficiency (T-RL orientation) vs wild-type transposon end (log2 (normalized fold change)); transposon end mutated: right end (5 bp flank + 75 bp right end); higher = more efficient transposition
Method in brief: (§1)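 Co-transformation of E. coli BL21(DE3) combined a pUC57 mini-transposon donor, holding barcoded pools of 1549 left-end or 1849 right-end variants, with a T7-driven plasmid encoding a CRISPR array, tniQ-cas8-cas7-cas6 and tnsA-tnsB-tnsC. After plating with 0.1 mM IPTG at 37°C for 18 h, input plasmids and genomic integration junctions were PCR-amplified and Illumina-sequenced across two biological output replicates, with four reference barcodes. Relative integration efficiency is the normalised, log-transformed output/input barcode fold change.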

[2] = system: VchCAST RNA-guided transposition machinery (E. coli BL21(DE3) host, lacZ target); assay: relative integration efficiency (T-LR orientation) vs wild-type transposon end (log2 (normalized fold change)); transposon end mutated: right end (5 bp flank + 75 bp right end); higher = more efficient transposition
Method in brief: as §1

Sequence	relative integration efficiency (log2) [1]	relative integration efficiency (log2) [2]
ACATTTGTTGATACCACCATCAAATGGTAATTACACCCCTAAATTGATAATTATCACACCCAATTTAACTATAACGCTCTGATCATAGTCAGACCAACATTGCTACGACCCGTATTCGCACCGACAC	-6.57 ± 0.25	-3.8 ± 0.81
ACATTTGTTGATACAACCATAAAATGATAATTACACAACGAAATTGATAATTATCACACCCATAAATTGATATTGCCTCTGATCATAGTCAGACCAACATTGCTACGACCCGTATTCGCACCGACAC	-3.5 ± 0.2	-3.53 ± 0.42
ACATTTGTTGATACAACCATAAAATCATCATTACACCCATAAATTGATAATTATCCCACCCAATTTAACTATAACGCTCTGATCATAGTCAGACCAACATTGCTACGACCCGTATTCGCACCGACAC	-3.07 ± 0.5	0.728 ± 0.058
ACATTTGTTGATACAACCATAAAATGATAATTACACCCATAAATTGAATATTATCACACCCATAAATTGATATTGCCTCTGATCATAGTCAGACCAACATTGCTACGACCCGTATTCGCACCGACAC	-1.1 ± 0.27	-0.409 ± 0.19
ACATTTGTGGATACAACCATAAAATGATAATTCACCCATAAATTGATAATTATCACACCCCAATTTAACTATAACGCTCTGATCATAGTCAGACCAACATTGCTACGACCCGTATTCGCACCGACAC	-1.92 ± 0.17	1.23 ± 0.028
ACATTTGTTGATACAACCATATATTGATATCTCCACCCATAAATTGATATTGCTCACAACCATAAGTTGATATTTTCTCTGATCATAGTCAGACCAACATTGCTACGACCCGTATTCGCACCGACAC	-0.57247 ± 9.5e-05	0.281 ± 0.01
ACATTTGTTGATACAACCATAAAATGATAATTAATAATTATTTATAATCAGCAACCACCCATAAATTGATAATTATCACACCCATAAATTGATATTGCCTCTGATCATAGTCAGACCAACATTGCTA	-3.26 ± 0.25	-1.81 ± 0.066
ACATTTGTGGATCCAACCATAAAATGATAATTACACCCATAAATTCATCATTATCACACCCAATTTAACTATAACGCTCTGATCATAGTCAGACCAACATTGCTACGACCCGTATTCGCACCGACAC	-2.28 ± 0.22	1.15 ± 0.38
ACATTTGTTGATACAACCATCAAATGGTAATTCCACCCATACATTGATAATTATCACACCCAATTTAACTATAACGCTCTGATCATAGTCAGACCAACATTGCTACGACCCGTATTCGCACCGACAC	-4.83 ± 0.15	-2.28 ± 0.36
ACATTTGTCGATACAACCCTAAAATGATAATTACACCCATAAATTCATCATTATCACACCCAATTTAACTATAACGCTCTGATCATAGTCAGACCAACATTGCTACGACCCGTATTCGCACCGACAC	-4.888 ± 0.035	-1.06 ± 0.37
ACATTTGTTGATACAACCATAAAATGATAATTACACCCATAAATTGATAATTATCACACCCATAAATTGATATTGCCTCTGATCATAGTCAGACCACAACCATAAAATGATAATTAAGCACCGACAC	-0.0173 ± 0.24	-0.205 ± 0.37
ACATTTGTTGATACAACCATAAAATGATAATTACACCCATAAATTGATAATTATCACACCCATAAATTGATATTGCCTCTGATCAACCATAAAATGATAATTACATAGTCAGACCAAGCACCGACAC	0.875 ± 0.21	0.401 ± 0.26
ACATTTGTTGATACAACCATAAAATGATAATTACACCCATAAAGGGATAATTATCACACCCATAAATTGATATTGCCTCTGATCATAGTCAGACCAACATTGCTACGACCCGTATTCGCACCGACAC	-0.447 ± 0.064	-0.969 ± 0.58
ACATTTGTTGATACAACCCTAAAATGATAATTACACCCATAAATTCATCATTATCACACCCAATTTAACTATAACGCTCTGATCATAGTCAGACCAACATTGCTACGACCCGTATTCGCACCGACAC	-4.59 ± 0.18	-1.57 ± 0.23
CAAAATGTAAAAACAACCATAAAATGATAATTAGAAACCATACGCTGAAATAAAAACAACCATACCTTGAAATTGCTTATAAAGTGTACAACACTTGAGAAAGTTTACTACAGGTATGCACCGACAC	-0.449 ± 0.47	2.48 ± 0.26
ACATTTGTTGATACCACCATCAAATGATAATTACACCCATAAATTGATAATTATCACACCCAATTTAACTATAACGCTCTGATCATAGTCAGACCAACATTGCTACGACCCGTATTCGCACCGACAC	-1.91 ± 0.26	1.14 ± 0.18
ACATTTGTTGATACAACCATAAAGTGATATTTACAACCATAAGTTGATATTTTTCACAACCATATATTGATATCTCCTCTGATCATAGTCAGACCAACATTGCTACGACCCGTATTCGCACCGACAC	0.0944 ± 0.13	0.346 ± 0.17
ACATTTGTTGATACAACCAATAAATGATAATTACACCCATAAATTGATAATGATGACACCGAATTTAACTATAACGCTCTGATCATAGTCAGACCAACATTGCTACGACCCGTATTCGCACCGACAC	-1.56 ± 0.22	1.92 ± 0.035

Sequence	relative integration efficiency (log2) [1]	relative integration efficiency (log2) [2]
AACTTTGTTGATACAACCATAAAATGATAATTACACCCATAAATTGATAATTATCACACCCATAAATTGATATTGCCTCTGATCATAGTCAGACCAACATTGCTACGACCCGTATTCGCACCGACAC	-0.217 ± 0.078	0.0855 ± 0.25
ACATTTGTTGATACAACCATAAAATGATAATTAATAATTATTTATAATCAGCAACTCACCCATAAATTGATAATTATCAACAAACGCCCGGTCGCGGTACTCTGATCATAGTCAGACCAACATTGCT	-2.25 ± 0.75	-0.174 ± 0.43
ACATTTGTTGATACAACCATAAAATGATAATTACACCCATAAATTGTATTTTATCACACCCATAAATTGATATTGCCTCTGATCATAGTCAGACCAACATTGCTACGACCCGTATTCGCACCGACAC	-0.924 ± 0.063	-0.327 ± 0.39
ACATTTGTTGATACAACCATAAAATGATAATTACACCCATAAATTCATCATTATCACCCCCAATTTAACTATAACGCTCTGATCATAGTCAGACCAACATTGCTACGACCCGTATTCGCACCGACAC	-1.8 ± 0.25	1.45 ± 0.16
ACATTTGTTGATACAACCATATATTGATATCTCCAACCATAAAATGATAATTATCACAACCATATATTGATATCTCCTCTGATCATAGTCAGACCAACATTGCTACGACCCGTATTCGCACCGACAC	-0.5854 ± 0.0047	-0.283 ± 0.24
ACATTAGTGGATACAACCATAAAATGATAATTACACCCATAAATTGATAATTATCACACCCAATTTAACTATAACGCTCTGATCATAGTCAGACCAACATTGCTACGACCCGTATTCGCACCGACAC	-5.98 ± 0.27	-3.09 ± 0.75
ACATTTGTTGATACAACCATATATTGATATCTCCAACCATATATTGATATCTCTCACAACCATATATTGATATCTCCTCTGATCATAGTCAGACCAACATTGCTACGACCCGTATTCGCACCGACAC	-0.859 ± 0.14	-0.402 ± 0.094
ACATTTGTTTCTACAACCATAAAATGATAATTACACCCATAAATTGATAATTATCACACCCATAAATTGATATTGCCTCTGATCATAGTCAGACCAACATTGCTACGACCCGTATTCGCACCGACAC	-1.06 ± 0.14	-3.43 ± 0.18
ACATTTGTTGATACAACCATAAAATGATAATTACACCCATAACGGTCGCCGGCGACACAAACGCCCGGTCGCGGTAAGAGGATCATAGTCAGACCAACATTGCTACGACCCGTATTCGCACCGACAC	-2.35 ± 0.24	0.674 ± 0.11
ACATTTGTTGATACAACCATAAAATGATAATAACACCCATAAATTGATAATAATCACACCCATAAATTGATATTCCCTCTGATCATAGTCAGACCAACATTGCTACGACCCGTATTCGCACCGACAC	-0.389 ± 0.15	-0.098 ± 0.26
ACATTTGTTGATACACCCATAAATTGATAATTACAACCATAAGTTGATATTTTTCACAACCATAAGTTGATATTTTCTCTGATCATAGTCAGACCAACATTGCTACGACCCGTATTCGCACCGACAC	-0.543 ± 0.19	-0.275 ± 0.18
ACATTTGTTGATACAACCATAAAATGATAATTACACCCATAAATTGATAATTATCACTGCCATAAATTGATATTGCCTCTGATCATAGTCAGACCAACATTGCTACGACCCGTATTCGCACCGACAC	-0.228 ± 0.042	1.72 ± 0.2
ACATTTGTTGATACACCCATAAATTGATAATTACACCCATAAATTGATATTGCTCACAACCATATATTGATATCTCCTCTGATCATAGTCAGACCAACATTGCTACGACCCGTATTCGCACCGACAC	-1.02 ± 0.26	0.128 ± 0.24
ACATTTGTTGATACAACCATCAAATGGTAATTACACCCCTAAATTGATAATTATCACACCCAATTTAACTATAACGCTCTGATCATAGTCAGACCAACATTGCTACGACCCGTATTCGCACCGACAC	-4.79 ± 0.36	-2.01 ± 0.77
ACATTTGTTGATACAACCATAAAATGATAATTACACCCATAAATTGATAATTATCACAGGCATAAATTGATATTGCCTCTGATCATAGTCAGACCAACATTGCTACGACCCGTATTCGCACCGACAC	-0.0803 ± 0.09	0.567 ± 0.2
ACATTTGTTGATACAACCATAAAATGATAATTACACCCATAAATTGATAATATAGACACCCATAAATTGATATTGCCTCTGATCATAGTCAGACCAACATTGCTACGACCCGTATTCGCACCGACAC	-0.321 ± 0.15	-0.0877 ± 0.52
ACATTTGTTGATACAACCATAAAATGATAATTACAACCATAAGTTGATATTTTTCACACCCATAAATTGATAATTACTCTGATCATAGTCAGACCAACATTGCTACGACCCGTATTCGCACCGACAC	-0.168 ± 0.11	-0.141 ± 0.51
